Data as given in US20240139329A1 (CALIFORNIA INSTITUTE OF TECHNOLOGY, published 2024).

T1: mouse LRP6 extracellular domain (AA20-1366) tagged with 6×His tag (mouse, UniProt O88572 20-1366)
T1 construct: also called full length extracellular domain of mouse LRP6
T1 sequence: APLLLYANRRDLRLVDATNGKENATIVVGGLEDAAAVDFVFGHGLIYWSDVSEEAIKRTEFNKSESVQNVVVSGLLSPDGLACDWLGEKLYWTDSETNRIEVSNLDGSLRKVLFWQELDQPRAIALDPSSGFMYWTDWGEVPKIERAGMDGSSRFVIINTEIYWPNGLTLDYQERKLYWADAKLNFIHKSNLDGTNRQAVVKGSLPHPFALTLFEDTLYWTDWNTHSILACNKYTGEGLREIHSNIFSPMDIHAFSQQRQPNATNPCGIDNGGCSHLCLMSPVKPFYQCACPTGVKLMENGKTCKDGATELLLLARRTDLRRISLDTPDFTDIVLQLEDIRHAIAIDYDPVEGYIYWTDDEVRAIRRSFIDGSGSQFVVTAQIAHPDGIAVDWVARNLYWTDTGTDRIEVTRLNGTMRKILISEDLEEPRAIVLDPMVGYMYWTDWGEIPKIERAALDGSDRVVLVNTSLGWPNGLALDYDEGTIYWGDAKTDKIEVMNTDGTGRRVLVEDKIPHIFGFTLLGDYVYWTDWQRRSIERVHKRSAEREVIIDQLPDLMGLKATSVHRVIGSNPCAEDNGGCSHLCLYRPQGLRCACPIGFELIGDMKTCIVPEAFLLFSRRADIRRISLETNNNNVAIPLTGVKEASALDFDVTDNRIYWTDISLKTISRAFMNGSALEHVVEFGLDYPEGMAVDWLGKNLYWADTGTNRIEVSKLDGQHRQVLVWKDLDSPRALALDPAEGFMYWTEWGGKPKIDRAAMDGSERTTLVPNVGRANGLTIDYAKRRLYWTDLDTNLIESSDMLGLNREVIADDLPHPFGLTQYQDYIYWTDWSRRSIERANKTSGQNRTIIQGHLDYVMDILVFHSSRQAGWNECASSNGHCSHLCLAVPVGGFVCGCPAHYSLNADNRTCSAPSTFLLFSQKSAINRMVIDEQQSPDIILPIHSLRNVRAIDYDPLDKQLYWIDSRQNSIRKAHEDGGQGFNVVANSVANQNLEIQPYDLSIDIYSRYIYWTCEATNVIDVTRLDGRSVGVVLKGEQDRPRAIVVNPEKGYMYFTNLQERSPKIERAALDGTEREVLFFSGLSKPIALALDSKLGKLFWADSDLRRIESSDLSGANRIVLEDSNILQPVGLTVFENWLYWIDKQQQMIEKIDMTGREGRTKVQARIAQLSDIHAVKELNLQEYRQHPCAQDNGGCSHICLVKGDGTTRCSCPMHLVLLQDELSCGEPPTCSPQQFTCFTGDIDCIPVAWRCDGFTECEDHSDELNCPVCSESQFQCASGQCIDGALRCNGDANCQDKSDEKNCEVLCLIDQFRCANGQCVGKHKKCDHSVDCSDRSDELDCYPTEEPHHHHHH

T2: Human Adeno-Associated Virus Receptor (AAVR) PKD2 domain (AA 401-498) tagged with 6×His (human, UniProt Q8IZA0 401-498)
T2 construct: range 401-498; also called human AAVR PDK2 domain
T2 sequence: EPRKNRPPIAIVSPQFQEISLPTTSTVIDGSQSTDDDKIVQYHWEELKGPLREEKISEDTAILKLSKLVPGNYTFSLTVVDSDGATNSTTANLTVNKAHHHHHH

T3: Mouse SCA1 (LY6A), on cells (mouse, UniProt P05533 27-112)
T3 construct: whole, on cells; also called mouse LY6A
T3 sequence: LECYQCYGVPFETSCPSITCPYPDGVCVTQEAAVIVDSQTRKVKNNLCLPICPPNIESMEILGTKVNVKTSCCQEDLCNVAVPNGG

B1: AAV.CAP-Mac (other)
chain: MAADGYLPDWLEDNLSEGIREWWALKPGAPQPKANQQHQDNARGLVLPGYKYLGPGNGLDKGEPVNAADAAALEHDKAYDQQLKAGDNPYLKYNHADAEFQERLKEDTSFGGNLGRAVFQAKKRLLEPLGLVEEAAKTAPGKKRPVEQSPQEPDSSAGIGKSGAQPAKKRLNFGQTGDTESVPDPQPIGEPPAAPSGVGSLTMASGGGAPVADNNEGADGVGSSSGNWHCDSQWLGDRVITTSTRTWALPTYNNHLYKQISNSTSGGSSNDNAYFGYSTPWGYFDFNRFHCHFSPRDWQRLINNNWGFRPKRLNFKLFNIQVKEVTDNNGVKTIANNLTSTVQVFTDSDYQLPYVLGSAHEGCLPPFPADVFMIPQYGYLTLNDGSQAVGRSSFYCLEYFPSQMLRTGNNFQFSYEFENVPFHSSYAHSQSLDRLMNPLIDQYLYYLSRTINGSGQNQQTLKFSVAGPSNMAVQGRNYIPGPSYRQQRVSTTVTQNNNSEFAWPGASSWALNGRNSLMNPGPAMASHKEGEDRFFPLSGSLIFGKQGTGRDNVDADKVMITNEEEIKTTNPVATESYGQVATNHQSAQLNTTKPIAQAQTGWVQNQGILPGMVWQDRDVYLQGPIWAKIPHTDGNFHPSPLMGGFGMKHPPPQILIKNTPVPADPPTAFNKDKLNSFITQYSTGQVSVEIEWELQKENSKRWNPEIQYTSNYYKSNNVEFAVNTEGVYSEPRPIGTRYLTRNL
notes: also called CAP-C1
B2: AAV9-X1.1 (other)
chain: MAADGYLPDWLEDNLSEGIREWWALKPGAPQPKANQQHQDNARGLVLPGYKYLGPGNGLDKGEPVNAADAAALEHDKAYDQQLKAGDNPYLKYNHADAEFQERLKEDTSFGGNLGRAVFQAKKRLLEPLGLVEEAAKTAPGKKRPVEQSPQEPDSSAGIGKSGAQPAKKRLNFGQTGDTESVPDPQPIGEPPAAPSGVGSLTMASGGGAPVADNNEGADGVGSSSGNWHCDSQWLGDRVITTSTRTWALPTYNNHLYKQISNSTSGGSSNDNAYFGYSTPWGYFDFNRFHCHFSPRDWQRLINNNWGFRPKRLNFKLFNIQVKEVTDNNGVKTIANNLTSTVQVFTDSDYQLPYVLGSAHEGCLPPFPADVFMIPQYGYLTLNDGSQAVGRSSFYCLEYFPSQMLRTGNNFQFSYEFENVPFHSSYAHSQSLDRLMNPLIDQYLYYLSRTIDGAATKNQTLKFSVAGPSNMAVQGRNYIPGPSYRQQRVSTTVTQNNNSEFAWPGASSWALNGRNSLMNPGPAMASHKEGEDRFFPLSGSLIFGKQGTGRDNVDADKVMITNEEEIKTTNPVATESYGQVATNHQSAQGNNTRSVAQAQTGWVQNQGILPGMVWQDRDVYLQGPIWAKIPHTDGNFHPSPLMGGFGMKHPPPQILIKNTPVPADPPTAFNKDKLNSFITQYSTGQVSVEIEWELQKENSKRWNPEIQYTSNYYKSNNVEFAVNTEGVYSEPRPIGTRYLTRNL
notes: also called AAV-X1.1; X1B10

How the values were obtained:
[1] = target: T1, mouse LRP6 extracellular domain …; assay: pull-down, His-tagged bait on Ni-NTA, AAV prey, Western blot (FIG. 21)
[2] = target: T2, Human Adeno-Associated Virus Receptor …; assay: as above
[3] = target: T4, human pancreatic secretory granule membrane major glycoprotein GP2 (GP2), on cells (human, UniProt P55259 29-512); assay: cell microarray screen hit (membrane)
T4 construct: also called glycoprotein 2; hGP2
T4 sequence (P55259 29-512 limits assumed): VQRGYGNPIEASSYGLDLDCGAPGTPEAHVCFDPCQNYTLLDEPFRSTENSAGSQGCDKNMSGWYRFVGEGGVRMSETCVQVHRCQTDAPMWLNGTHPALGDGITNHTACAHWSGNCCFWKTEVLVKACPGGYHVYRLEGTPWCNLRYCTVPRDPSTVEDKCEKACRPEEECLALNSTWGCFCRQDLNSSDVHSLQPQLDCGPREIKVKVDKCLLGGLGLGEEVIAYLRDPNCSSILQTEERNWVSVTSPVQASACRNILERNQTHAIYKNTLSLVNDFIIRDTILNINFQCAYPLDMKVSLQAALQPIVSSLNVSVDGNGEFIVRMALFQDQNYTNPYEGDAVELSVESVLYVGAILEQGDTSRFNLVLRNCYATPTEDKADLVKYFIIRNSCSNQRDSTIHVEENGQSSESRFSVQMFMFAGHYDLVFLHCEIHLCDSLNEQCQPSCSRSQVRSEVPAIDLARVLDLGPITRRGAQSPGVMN
Description: (§1) After these controls, the six-capsid pool was tested in a full screen of approximately 6400 proteins, including 6000 human plasma membrane proteins and secreted and cell surface-tethered proteins, as well as approximately 400 heterodimers. […] To assign these hits to specific capsids, follow-up deconvolution screens were performed with each individual capsid from the pool (FIG. 12E). DNA oligos for the 22 identified hits, as well as the positive control CD86, were affixed in duplicate locations to new slides. A negative control condition with no AAV analyte and a positive control condition with CTLA4-Fc (CD86 binder) were also included.

[4] = target: T5, human low-density lipoprotein receptor-related protein 6 (LRP6), on cells (human, UniProt O75581 20-1613); assay: cell microarray screen
T5 construct: also called hLRP6

[5] = target: T3, Mouse SCA1 (LY6A), on cells; assay: cell microarray, individual capsids, anti-AAV9 detection
Description: To enable higher-throughput screening, the six capsids were tested as a pool. Pooled testing required additional dosage optimizing, first for the individual and then for the collective background binding levels of the included capsids (Table 5).

[6] = target: T6, human GP2 (AA 1-518) triple tagged with Fc-Myc-6×His (human, UniProt P55259 29-518); assay: validated interaction (cell culture potency assay and/or SPR)
T6 construct: also called human GP2-Fc; not shown: Fc and Myc tags
T6 sequence (P55259 29-518): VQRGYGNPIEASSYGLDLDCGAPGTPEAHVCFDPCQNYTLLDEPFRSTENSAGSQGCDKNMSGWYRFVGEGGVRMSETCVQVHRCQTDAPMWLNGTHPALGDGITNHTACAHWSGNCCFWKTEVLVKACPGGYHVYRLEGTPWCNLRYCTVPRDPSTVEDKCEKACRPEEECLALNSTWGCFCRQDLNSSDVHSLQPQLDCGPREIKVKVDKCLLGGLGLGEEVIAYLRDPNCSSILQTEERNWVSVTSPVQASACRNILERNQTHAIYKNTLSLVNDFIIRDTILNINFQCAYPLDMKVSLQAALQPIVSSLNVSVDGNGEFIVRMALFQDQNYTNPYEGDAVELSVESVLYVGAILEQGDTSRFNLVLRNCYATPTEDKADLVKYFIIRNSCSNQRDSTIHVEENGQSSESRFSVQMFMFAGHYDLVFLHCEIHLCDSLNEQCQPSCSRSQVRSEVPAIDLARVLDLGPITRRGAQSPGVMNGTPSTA

[7] = target: T5, human low-density lipoprotein …; assay: cell microarray screen hit (membrane)
Description: as §1

Binder	binding result [1]	binding result [2]	binding result [3]	binding result [4]	binding result [5]	binding result [6]	binding result [7]
B1	binds	binds	binds	binds	no binding	–	–
B2	binds	binds	binds	–	no binding	binds	binds
